Key:
[1] = test system: CC(C)C[C@H](NC(=O)[C@H](Cc1c[nH]cn1)NC(=O)[C@H](Cc1ccccc1)NC(=O)[C@H](CO)NC(=O)[C@H](C)NC(=O)[C@H](CCCNC(=N)N)NC(=O)[C@H](CCCNC(=N)N)NC(=O)CNC(=O)[C@H](CC(C)C)NC(=O)[C@H](CO)NC(=O)[C@H](C)NC(=O)[C@H](CO)NC(=O)[C@H](CCCNC(=N)N)NC(=O)[C@H](CC(C)C)NC(=O)[C@H](Cc1ccccc1)NC(=O)CNC(=O)[C@@H](N)CCCNC(=N)N)C(=O)O; experiment: purified protein, by the assay type; conditions: other: ADP-Glo; 3 nM PKAc, 1 mM ATP, 5 mM Mg2+, substrate 0-256 μM, room temperature 30 min; Michaelis-Menten fit; mean ± SD of n = 3 or 4; pH 7.4
Protocol: (§1) We used enzyme kinetics to investigate the activity of catalytic subunit of PKA (PKAc) toward the three target sites within the C terminus of CaV1.2. We performed discontinuous kinase assays using an ADP-GloMax Assay kit.
(§2) Kinase assays were conducted using an ADP-Glo Kinase Assay Kit (Promega). […] Therefore, we performed assays with excess ATP (1 mM) and Mg^2+ (5 mM) to saturate PKAc prior to substrate binding. Reagents were prepared as described in the kit, aliquoted, and frozen at −20 °C prior to use. Reactions were conducted in 384-well solid white polystyrene microplates (Corning). Peptide substrates and EFPreIQ were dissolved and/or diluted to 800 μM using 50 mM Hepes (pH 7.4), 150 mM KCl, 5 mM MgCl2, and 4 mM TCEP. […] For peptides lacking tryptophan, the amount of volume needed to achieve a concentration of 800 μM was calculated prior to dissolving. The peptides/substrate was 2-fold serially diluted using the same buffer to create 11 reactions per curve ranging from 0 to 256 μM. ATP was added to each reaction to achieve a final concentration of 1 mM. Reactions were initiated by the addition of thawed PKAc at a final concentration of 3 nM at a final well volume of 20 μl. After allowing reactions to occur at room temperature for 30 min, 3 × 5 ml from each reaction in a curve was taken and mixed with 5 ml ADP-Glo Reagent for a total of three technical replicates per biological replicate. After 40 min, 10 ml of kinase detection reagent was added to each technical replicate and, after waiting 60 min, relative luminescence unit were measured using a VICTOR X4 Multilabel Plate Reader (PerkinElmer).
(§3) The relative luminescence unit values were converted to specific activity values via interpolation of a standard curve that was created in accordance with the manufacturer’s protocol. The three technical replicates were averaged to calculate a biological replicate value and plotted against peptide concentration using GraphPad 9 (Prism) software (https://www.graphpad.com/updates/prism-900-release-notes). Technical replicate values resulting from experimental error were removed from the dataset and subsequent averaging. […] The Michaelis–Menten kinetics fitting function was used to generate a nonlinear regression to calculate both a Km constant and Vmax value for each biological replicate curve. These Km constant and Vmax values were averaged and SDs are reported. Figures displaying data points and Michaelis–Menten curves depict the average specific activity values calculated from all biological replicates in the three or four experiments (n = 3 or n = 4) per peptide (n = 4 for Ser1981 and Ser272 peptides, n = 3 for all others).

[2] = test system: C[C@H](NC(=O)CN)C(=O)NCC(=O)N[C@@H](CCCNC(=N)N)C(=O)N[C@@H](CCC(=O)O)C(=O)N[C@@H](CCCNC(=N)N)C(=O)N[C@@H](CC(=O)O)C(=O)N[C@@H](CCCNC(=N)N)C(=O)N[C@@H](CCCNC(=N)N)C(=O)N[C@@H](CCCNC(=N)N)C(=O)NCC(=O)N[C@@H](CO)C(=O)N[C@H](C(=O)N1CCC[C@H]1C(=O)N[C@@H](Cc1c[nH]c2ccccc12)C(=O)O)[C@@H](C)O; experiment: purified protein, by the assay type; conditions: other: ADP-Glo; 3 nM PKAc, 1 mM ATP, 5 mM Mg2+, substrate 0-256 μM, room temperature 30 min; Michaelis-Menten fit; mean ± SD of n = 3 or 4; pH 7.4
Protocol: as §1, §2, §3

## PKAc (catalytic subunit of PKA, PKAcα 16-351) (Mus musculus)
[1]
  Km: 8.1 ± 2.5 µM
  kcat: 15.5 ± 1.2 s⁻¹
  kcat/Km: 1.9e+06 ± 600000 M⁻¹ s⁻¹
[2]
  Km: 19.0 ± 6.7 µM
  kcat: 16.2 ± 0.8 s⁻¹
  kcat/Km: 900000 ± 300000 M⁻¹ s⁻¹
